Target: T1, recombinant human IL4 (human, UniProt P05112 25-153)
T1 construct: Bought protein; also called human IL4 (Millipore catalog # IL004)
T1 sequence (looked up): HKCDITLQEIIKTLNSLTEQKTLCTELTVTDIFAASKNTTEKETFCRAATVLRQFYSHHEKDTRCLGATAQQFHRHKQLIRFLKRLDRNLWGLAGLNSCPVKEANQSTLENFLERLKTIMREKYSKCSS
Test: SPR (Biacore), captured antibody, IL4 as analyte

B1: Binding Protein 18, (anti-IL4 × anti-IL13) × anti-IL13 (bispecific antibody, human IgG1, kappa, lambda)
heavy 1: not shown
light 1: DIVLTQSPASLAVSLGQRATISCRASESVDSYGQSYMHWYQQKAGQPPKLLIYLASNLESGVPARFSGSGSRTDFTLTIDPVQAEDAATYYCQQNAEDSRTFGGGTKLEIKGQPKAAPSVTLFPPSSEELQANKATLVCLISDFYPGAVTVAWKADSSPVKAGVETTTPSKQSNNKYAASSYLSLTPEQWKSHRSYSCQVTHEGSTVEKTVAPTECS
heavy 2: not shown
light 2: not shown
notes: Bispecific trivalent (CODV-Fab) × Fab-IgG1 Fc; kappa on CODV-LC, lambda on Fab-arm-LC; CODV-HC knob-RF, Fab-arm-HC hole; also called IL13 × (IL4 × IL13)
  Kd: 1.02 pM
